Experiment in all cases: cleavage_in_vitro; PAM TTC; 5 mM Mg2+
Common to all, as to conditions: tags: C-terminal His6; label: 5'-FAM on NT-strand, 3'-FAM on T-strand

In data set [1] the target is T1, CasΦ3 Q197A (Biggiephage, Q197A).
T1 chain: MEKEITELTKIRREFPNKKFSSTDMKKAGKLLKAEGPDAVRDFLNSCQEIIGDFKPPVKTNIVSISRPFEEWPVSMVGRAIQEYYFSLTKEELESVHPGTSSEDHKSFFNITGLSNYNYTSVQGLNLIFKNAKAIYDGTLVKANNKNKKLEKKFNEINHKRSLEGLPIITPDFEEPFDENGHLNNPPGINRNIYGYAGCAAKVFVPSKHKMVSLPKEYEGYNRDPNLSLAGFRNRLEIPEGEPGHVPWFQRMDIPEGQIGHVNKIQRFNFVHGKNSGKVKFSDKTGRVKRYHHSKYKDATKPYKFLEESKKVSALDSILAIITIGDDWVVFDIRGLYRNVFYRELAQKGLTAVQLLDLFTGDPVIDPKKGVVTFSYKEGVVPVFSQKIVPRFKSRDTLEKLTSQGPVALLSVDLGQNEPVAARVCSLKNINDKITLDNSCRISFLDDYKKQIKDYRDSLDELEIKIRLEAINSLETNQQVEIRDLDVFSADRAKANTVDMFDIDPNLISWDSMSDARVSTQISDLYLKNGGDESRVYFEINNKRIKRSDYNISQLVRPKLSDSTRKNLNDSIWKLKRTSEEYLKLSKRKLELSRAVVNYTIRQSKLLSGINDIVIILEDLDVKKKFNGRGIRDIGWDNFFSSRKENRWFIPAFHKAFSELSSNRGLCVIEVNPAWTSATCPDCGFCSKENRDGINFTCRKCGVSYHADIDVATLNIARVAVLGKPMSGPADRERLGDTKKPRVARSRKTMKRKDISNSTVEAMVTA

Data set [2] has as its target T2, CasΦ3 Q123A (Biggiephage, Q123A).
T2 chain: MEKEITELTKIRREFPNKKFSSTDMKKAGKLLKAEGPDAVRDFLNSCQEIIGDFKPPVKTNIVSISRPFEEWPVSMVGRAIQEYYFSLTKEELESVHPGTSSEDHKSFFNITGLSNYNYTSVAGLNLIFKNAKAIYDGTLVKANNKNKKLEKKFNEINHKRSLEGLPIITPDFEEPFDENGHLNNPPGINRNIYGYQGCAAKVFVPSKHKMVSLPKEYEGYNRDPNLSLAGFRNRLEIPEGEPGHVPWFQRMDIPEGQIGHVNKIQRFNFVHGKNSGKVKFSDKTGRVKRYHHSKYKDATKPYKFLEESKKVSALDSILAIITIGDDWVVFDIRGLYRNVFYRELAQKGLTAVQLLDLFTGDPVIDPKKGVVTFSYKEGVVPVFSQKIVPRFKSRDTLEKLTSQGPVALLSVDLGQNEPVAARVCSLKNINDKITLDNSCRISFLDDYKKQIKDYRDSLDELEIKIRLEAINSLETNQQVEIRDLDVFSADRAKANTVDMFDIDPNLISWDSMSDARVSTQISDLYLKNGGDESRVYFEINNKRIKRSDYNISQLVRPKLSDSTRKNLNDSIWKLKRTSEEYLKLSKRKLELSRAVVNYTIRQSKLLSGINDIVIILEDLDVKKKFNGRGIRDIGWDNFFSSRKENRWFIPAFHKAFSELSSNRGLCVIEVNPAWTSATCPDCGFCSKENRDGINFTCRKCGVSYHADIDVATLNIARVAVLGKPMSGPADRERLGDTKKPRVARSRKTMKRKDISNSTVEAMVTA

Data set [3] concerns the target T3, CasΦ3 K30A (Biggiephage, K30A).
T3 chain: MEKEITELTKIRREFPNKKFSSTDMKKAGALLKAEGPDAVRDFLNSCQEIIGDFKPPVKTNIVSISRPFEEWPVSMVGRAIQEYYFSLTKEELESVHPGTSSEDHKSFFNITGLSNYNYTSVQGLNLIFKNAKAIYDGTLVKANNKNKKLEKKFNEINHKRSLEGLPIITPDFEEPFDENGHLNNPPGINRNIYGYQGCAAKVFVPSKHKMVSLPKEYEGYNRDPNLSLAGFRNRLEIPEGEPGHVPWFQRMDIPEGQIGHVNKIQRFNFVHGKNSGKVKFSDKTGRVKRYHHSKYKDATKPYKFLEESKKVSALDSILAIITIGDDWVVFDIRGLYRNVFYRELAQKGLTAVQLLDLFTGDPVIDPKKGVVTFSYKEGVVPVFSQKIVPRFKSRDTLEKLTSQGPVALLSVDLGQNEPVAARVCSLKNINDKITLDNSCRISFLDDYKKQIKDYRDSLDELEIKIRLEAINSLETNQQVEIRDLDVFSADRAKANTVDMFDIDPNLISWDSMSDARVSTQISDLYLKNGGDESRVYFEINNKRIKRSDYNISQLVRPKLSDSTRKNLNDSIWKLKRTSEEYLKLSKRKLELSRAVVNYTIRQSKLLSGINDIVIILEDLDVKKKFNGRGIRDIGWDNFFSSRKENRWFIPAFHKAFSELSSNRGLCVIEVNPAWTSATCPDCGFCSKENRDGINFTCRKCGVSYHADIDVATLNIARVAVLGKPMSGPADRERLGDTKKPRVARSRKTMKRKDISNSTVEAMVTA

B1: CasΦ3 crRNA ; FAM-labelled target dsDNA (5F-NT-TTC-30/3F-T-AAG-30) (ssRNA ; dsDNA)
RNA: UAUUGAUUGCCCAGUACGCUGGGACAGCUGGUAAUGGGAUACCUU
DNA 1: GTAATTCAGCTGGTAATGGGATACCTTGTGCTACAGC
DNA 2: GCTGTAGCACAAGGTATCCCATTACCAGCTGAATTAC
Regarding B1, the activity was ~90 % reduction vs WT in data set [1], ~90 % reduction vs WT in data set [2] and ~55 % reduction vs WT in data set [3].

The values are drawn from patent US20260234700, “MUTANT CAS12J ENDONUCLEASES” (University of Copenhagen, published 2026).
